Assays:
[1] = target: T1, 重组人ROR1蛋白 (北京义翘神州, 产品编号13968-H08H) (human, UniProt Q01973 30-403); experiment: ELISA, ROR1 coated at 0.5 μg/mL, Fab from 200 μg/mL in 11 dilutions, goat anti-human Fab secondary, OD450
T1 construct: Bought protein; also called recombinant human ROR1 protein

[2] = target: ROR1天然抗原 (人卵巢癌细胞系A2780) (human) (UniProt Q01973); experiment: flow cytometry on A2780 cells, Fab at 30 μg/mL, FITC goat anti-human Fab secondary

T1 sequence (Q01973 30-403 limits assumed): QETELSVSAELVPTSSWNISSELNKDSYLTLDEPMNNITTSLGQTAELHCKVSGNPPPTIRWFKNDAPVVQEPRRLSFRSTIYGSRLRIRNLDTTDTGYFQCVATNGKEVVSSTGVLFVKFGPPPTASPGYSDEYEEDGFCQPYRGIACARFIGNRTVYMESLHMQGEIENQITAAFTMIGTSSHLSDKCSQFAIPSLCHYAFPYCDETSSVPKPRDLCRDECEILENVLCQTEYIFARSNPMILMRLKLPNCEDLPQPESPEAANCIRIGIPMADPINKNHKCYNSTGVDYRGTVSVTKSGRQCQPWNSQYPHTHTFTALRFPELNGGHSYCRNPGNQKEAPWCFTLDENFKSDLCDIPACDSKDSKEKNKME

binding result [1]: binds
结合率 [2]: 97.4%
B1: 嵌合抗ROR1抗体Fab分子 (Fab, V domains shown)
VH: EVQLVQSGGGLVQPKGSLKLSCAASGFTFNTYAMNWVRQAPGKGLEWVARIRSKSNNYATYYADSVKDRFTISRDDSQSMLYLQMNNLKTEDTAMYYCVSPAYYGNYVGFAYWGQGTLVTVSA
VL: ELVMTQSPTTMAASPGEKITFTCSASSSISSTYLHWFQQKPGFSPKLLIYRTSNLASGVPARFSGSGSGTSYSLTIGTMEAEDVATYYCQQGSSLPFTFGSGTKLEIKG
notes: Human-mouse chimeric Fab, L and Fd joined by an interchain disulfide; also called 抗ROR1抗体人鼠嵌合Fab分子; 抗ROR1抗体嵌合Fab分子

Reference: CN107827984A (ZHANG HUILIN; ZHU JIN, dated 2018)
